According to the supplement of paper PMC11246515:
± gives the standard deviation of the averaged measurements.

Test: total protein half-life in vivo (active degradation + dilution); higher = more stable protein
[1] = E. coli NCM3722 delta-clpP, growth: N-lim chemostat, doubling time 6 h
[2] = E. coli NCM3722 delta-smpB, growth: N-lim chemostat, doubling time 6 h
[3] = wild type E. coli NCM3722, growth: C-lim chemostat, doubling time 6 h
[4] = wild type E. coli NCM3722, growth: C-lim chemostat, doubling time 12 h
[5] = wild type E. coli NCM3722, growth: N-lim chemostat, doubling time 6 h
[6] = wild type E. coli NCM3722, growth: N-lim chemostat, doubling time 12 h
[7] = wild type E. coli NCM3722, growth: P-lim chemostat, doubling time 12 h
[8] = E. coli NCM3722 delta-clpP delta-lon delta-hslV, growth: N-lim chemostat, doubling time 6 h
[9] = E. coli NCM3722 delta-hslV, growth: N-lim chemostat, doubling time 6 h
[10] = E. coli NCM3722 delta-lon, growth: N-lim chemostat, doubling time 6 h
[11] = wild type E. coli NCM3722, growth: C-lim chemostat, doubling time 3 h
[12] = wild type E. coli NCM3722, growth: P-lim chemostat, doubling time 6 h

| Sequence | total protein half-life in vivo [1] | total protein half-life in vivo [2] | total protein half-life in vivo [3] | total protein half-life in vivo [4] | total protein half-life in vivo [5] | total protein half-life in vivo [6] | total protein half-life in vivo [7] | total protein half-life in vivo [8] | total protein half-life in vivo [9] | total protein half-life in vivo [10] | total protein half-life in vivo [11] | total protein half-life in vivo [12] |
| --- | --- | --- | --- | --- | --- | --- | --- | --- | --- | --- | --- | --- |
| MSSQYLRIFQQPRSAILLILGFASGLPLALTSGTLQAWMTVENIDLKTIGFFSLVGQAYVFKFLWSPLMDRYTPPFFGRRRGWLLATQILLLVAIAAMGFLEPGTQLRWMAALAVVIAFCSASQDIVFDAWKTDVLPAEERGAGAAISVLGYRLGMLVSGGLALWLADKWLGWQGMYWLMAALLIPCIIATLLAPEPTDTIPVPKTLEQAVVAPLRDFFGRNNAWLILLLIVLYKLGDAFAMSLTTTFLIRGVGFDAGEVGVVNKTLGLLATIVGALYGGILMQRLSLFRALLIFGILQGASNAGYWLLSITDKHLYSMGAAVFFENLCGGMGTSAFVALLMTLCNKSFSATQFALLSALSAVGRVYVGPVAGWFVEAHGWSTFYLFSVAAAVPGLILLLVCRQTLEYTRVNDNFISRTAYPAGYAFAMWTLAAGVSLLAVWLLLLTMDALDLTHFSFLPALLEVGVLVALSGVVLGGLLDYLALRKTHLT [P0AE16] | 5.97 h | 6.24 h | 4.45 h | 4.64 h | 6.55 h | 12.4 ± 4.7 h | 10.3 ± 1.2 h |  |  |  |  |  |
| MSGFFQRLFGKDNKPAIARGPLGLHLNSGFTLDTLAFRLLEDELLIALPGEEFTVAAVSHIDLGGGSQIFRYYTSGDEFLQINTTGGEDIDDIDDIKLFVYEESYGISKESHWREAINAKAMGAMTLNWQEKRWQRFFNSEEPGNIEPVYMLEKVENQNHAKWEVHNFTMGYQRQVTEDTYEYLLLNGEESFNDLGEPEWLFSRALGVDIPLTSLHIIG |  |  |  | 12.2 h | 5.26 h |  |  | 4.45 h | 6.47 ± 1 h | > 8 h | 3.22 h | 6.38 h |
| MSLPSIPSFVLSGLLLICLPFSSFASATTSHISFSYAARQRMQNRARLLKQYQTHLKKQASYIVEGNAESKRALRQHNREQIKQHPEWFPAPLKASDRRWQALAENNHFLSSDHLHNITEVAIHRLEQQLGKPYVWGGTRPDKGFDCSGLVFYAYNKILEAKLPRTANEMYHYRRATIVANNDLRRGDLLFFHIHSREIADHMGVYLGDGQFIESPRTGETIRISRLAEPFWQDHFLGARRILTEETIL |  |  |  | 3.06 h |  |  |  |  |  |  |  |  |
| MQTTQQNAPLKRTMKTRHLIMLSLGGVIGTGLFFNTGYIISTTGAAGTLLAYLIGALVVWLVMQCLGELSVAMPETGAFHVYAARYLGPATGYTVAWLYWLTWTVALGSSFTAAGFCMQYWFPQVPVWVWCVVFCAIIFGLNVISTRFFAEGEFWFSLVKVVTIIAFIILGGAAIFGFIPMQDGSPAPGLSNITAEGWFPHGGLPILMTMVAVNFAFSGTELIGIAAGETENPRKVIPVAIRTTIARLIIFFIGTVFVLAALIPMQQVGVEKSPFVLVFEKVGIPYAADIFNFVILTAILSAANSGLYASGRMLWSLSNERTLPACFARVTKNGVPLTALSVSMLGGVLALFSSVVAPDTVFVALSAISGFAVVAVWLSICASHFVFRRRHLQQGKALSELHYRAPWYPLVPVLGFVLCLVACVGLAFDPAQRIALWCGLPFVALCYGAYFLTQPRNAKQEPEHVAE | 1.78 h | 2.51 ± 0.28 h | 4.13 ± 0.25 h | 7.02 ± 0.5 h | 3.79 h |  | 7.23 h | 3.09 ± 0.25 h | 3.13 h |  | 3.05 ± 0.71 h | 3.63 ± 0.43 h |
| MLTVKQIEAAKPKEKPYRLLDGNGLYLYVPVSGKKVWQLRYKIDGKEKILTVGKYPLMTLQEARDKAWTARKDISVGIDPVKAKKASSNNNSFSAIYKEWYEHKKQVWSVGYATELAKMFDDDILPIIGGLEIQDIEPMQLLEVIRRFEDRGAMERANKARRRCGEVFRYAIVTGRAKYNPAPDLADAMKGYRKKNFPFLPADQIPAFNKALATFSGSIVSLIATKVLRYTALRTKELRSMLWKNVDFENRIITIDASVMKGRKIHVVPMSDQVVELLTTLSSITKPVSEFVFAGRNDKKKPICENAVLLVIKQIGYEGLESGHGFRHEFSTIMNEHEWPADAIEVQLAHANGGSVRGIYNHAQYLDKRREMMQWWADWLDEKVE | 5.79 ± 0.58 h | 5.02 ± 0.39 h | 5.53 ± 0.077 h | 10.3 ± 0.26 h | 5.503 ± 0.0091 h |  | 10.8 ± 1.7 h | 6.44 ± 2.1 h | 5.96 ± 0.24 h | 5.37 ± 0.098 h | 3.123 ± 0.013 h | 5.34 ± 0.46 h |
| MNTLTFLLSTVIELYTMVLLLRIWMQWAHCDFYNPFSQFVVKVTQPIIGPLRRVIPAMGPIDSASLLVAYILSFIKAIVLFKVVTFLPIIWIAGLLILLKTIGLLIFWVLLVMAIMSWVSQGRSPIEYVLIQLADPLLRPIRRLLPAMGGIDFSPMILVLLLYVINMGVAEVLQATGNMLLPGLWMAL |  |  |  | 10.6 h |  |  | 8.69 h | 6.46 h | 5.6 h | 6.12 h | 2.92 h | 5.07 h |
| MPTSHENALQQRCQQIVTSPVLSPEQKRHFLALEAENNLPYPQLPAEARRALDEGVICDMFEGHAPYKPRYVLPDYARFLANGSEWLELEGAKDLDDALSLLTILYHHVPSVTSMPVYLGQLDALLQPYVRILTQDEIDVRIKRFWRYLDRTLPDAFMHANIGPSDSPITRAILRADAELKQVSPNLTFIYDPEITPDDLLLEVAKNICECSKPHIANGPVHDKIFTKGGYGIVSCYNSLPLAGGGSTLVRLNLKAIAERSESLDDFFTRTLPHYCQQQIAIIDARCEFLYQQSHFFENSFLVKEGLINPERFVPMFGMYGLAEAVNLLCEKEGIAARYGKEAAANEVGYRISAQLAEFVANTPVKYGWQKRAMLHAQSGISSDIGTTPGARLPYGDEPDPITHLQTVAPHHAYYYSGISDILTLDETIKRNPQALVQLCLGAFKAGMREFTANVSGNDLVRVTGYMVRLSDLEKYRAEGSRTNTTWLGEEAARNTRILERQPRVISHEQQMRFSQ |  |  | 3.94 h | 6.17 h |  |  | 5.66 h | 4.57 h |  | 3.47 h | 2.7 h | 3.51 h |
| MLTKDLSITFCGVKFPNPFCLSSSPVGNCYEMCAKAYDTGWGGVVFKTIGFFIANEVSPRFDHLVKEDTGFIGFKNMEQIAEHPLEENLAALRRLKEDYPDKVLIASIMGENEQQWEELARLVQEAGADMIECNFSCPQMTSHAMGSDVGQSPELVEKYCRAVKRGSTLPMLAKMTPNIGDMCEVALAAKRGGADGIAAINTVKSITNIDLNQKIGMPIVNGKSSISGYSGKAVKPIALRFIQQMRTHPELRDFPISGIGGIETWEDAAEFLLLGAATLQVTTGIMQYGYRIVEDMASGLSHYLADQGFDSLQEMVGLANNNIVPAEDLDRSYIVYPRINLDKCVGCGRCYISCYDGGHQAMEWSEKTRTPHCNTEKCVGCLLCGHVCPVGCIELGEVKFKKGEKEHPVTL |  |  | 2.35 h | 1.67 ± 0.23 h |  |  |  | 4.6 h |  |  | 0.869 ± 0.52 h |  |
| MSKKIAVLITDEFEDSEFTSPADEFRKAGHEVITIEKQAGKTVKGKKGEASVTIDKSIDEVTPAEFDALLLPGGHSPDYLRGDNRFVTFTRDFVNSGKPVFAICHGPQLLISADVIRGRKLTAVKPIIIDVKNAGAEFYDQEVVVDKDQLVTSRTPDDLPAFNREALRLLGA | 4.34 ± 0.18 h | 4.51 ± 0.087 h | 5.32 ± 0.083 h | 9.27 ± 0.35 h | 4.72 ± 0.18 h | 7.76 ± 0.18 h | 10.6 ± 1.1 h | 6.07 ± 1.3 h | 5.59 ± 1.4 h | 5.74 ± 0.21 h | 3.22 ± 0.3 h | 5.12 ± 0.29 h |
